{"source": "the supplement of paper PMC9112550", "about": "“Optimization of the antimicrobial peptide Bac7 by deep mutational scanning” (BMC Biology, 2022);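 also: peptides expressed intracellularly from a pBAD plasmid library in pooled LB shake-flask culture, induced with 0.3% L-arabinose, DNA abundance read by NGS, three biological replicates, DESeq2 with apeglm shrinkage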"}
{"tested_on": "Escherichia coli TOP10", "test": "shrunken log2 fold change of peptide-encoding DNA abundance (4.5 h post-induction vs induction); higher = less antimicrobial activity (less host growth inhibition)", "settings": "time post-induction: 4.5 h; library: site-saturation at positions 5, 18, 19, 20"}
{"sequence": "RRIRHRPPRLPRPRPRPVMLPRP", "shrunken log2 fold change": -0.196}
{"sequence": "RRIRIRPPRLPRPRPRPINWPRP", "shrunken log2 fold change": -0.402}
{"sequence": "RRIRFRPPRLPRPRPRPTSTPRP", "shrunken log2 fold change": -0.0598}
{"sequence": "RRIRVRPPRLPRPRPRPKNAPRP", "shrunken log2 fold change": -0.197}
{"sequence": "RRIRCRPPRLPRPRPRPGYIPRP", "shrunken log2 fold change": -0.258}
{"sequence": "RRIRLRPPRLPRPRPRPKCNPRP", "shrunken log2 fold change": -0.647}
{"sequence": "RRIRRRPPRLPRPRPRPINNPRP", "shrunken log2 fold change": -0.407}
{"sequence": "RRIRPRPPRLPRPRPRPRNSPRP", "shrunken log2 fold change": 0.0183}
{"sequence": "RRIRYRPPRLPRPRPRPSWRPRP", "shrunken log2 fold change": -0.137}
{"sequence": "RRIRNRPPRLPRPRPRPHRCPRP", "shrunken log2 fold change": -0.0136}
{"sequence": "RRIRNRPPRLPRPRPRPEWPPRP", "shrunken log2 fold change": 0.178}
{"sequence": "RRIRIRPPRLPRPRPRPWRLPRP", "shrunken log2 fold change": -0.0935}
{"sequence": "RRIRQRPPRLPRPRPRPNKTPRP", "shrunken log2 fold change": -0.0379}
{"sequence": "RRIRGRPPRLPRPRPRPVYSPRP", "shrunken log2 fold change": -0.36}
{"sequence": "RRIRVRPPRLPRPRPRPATSPRP", "shrunken log2 fold change": -0.0495}
{"sequence": "RRIRERPPRLPRPRPRPDDHPRP", "shrunken log2 fold change": -0.284}
{"sequence": "RRIRDRPPRLPRPRPRPTKSPRP", "shrunken log2 fold change": 0.366}
{"sequence": "RRIRIRPPRLPRPRPRPYEIPRP", "shrunken log2 fold change": -0.811}
{"sequence": "RRIRSRPPRLPRPRPRPTFQPRP", "shrunken log2 fold change": 0.0282}
{"sequence": "RRIRSRPPRLPRPRPRPYSVPRP", "shrunken log2 fold change": -0.582}
{"sequence": "RRIRERPPRLPRPRPRPHEYPRP", "shrunken log2 fold change": -0.0163}
{"sequence": "RRIRNRPPRLPRPRPRPLLHPRP", "shrunken log2 fold change": -0.135}
{"sequence": "RRIRFRPPRLPRPRPRPRDQPRP", "shrunken log2 fold change": 0.0987}
{"sequence": "RRIRGRPPRLPRPRPRPCFNPRP", "shrunken log2 fold change": 0.436}
{"sequence": "RRIRNRPPRLPRPRPRPCDQPRP", "shrunken log2 fold change": -0.0229}
{"sequence": "RRIRARPPRLPRPRPRPMNLPRP", "shrunken log2 fold change": -0.313}
{"sequence": "RRIRYRPPRLPRPRPRPCDAPRP", "shrunken log2 fold change": -0.255}
{"sequence": "RRIRYRPPRLPRPRPRPQICPRP", "shrunken log2 fold change": -0.00591}
{"sequence": "RRIRWRPPRLPRPRPRPITNPRP", "shrunken log2 fold change": -0.0654}
{"sequence": "RRIRLRPPRLPRPRPRPDEDPRP", "shrunken log2 fold change": 0.0258}
{"sequence": "RRIRPRPPRLPRPRPRPFYAPRP", "shrunken log2 fold change": 0.02}
{"sequence": "RRIRGRPPRLPRPRPRPIHWPRP", "shrunken log2 fold change": 0.306}
{"sequence": "RRIRARPPRLPRPRPRPRADPRP", "shrunken log2 fold change": 0.924}
{"sequence": "RRIRGRPPRLPRPRPRPTHLPRP", "shrunken log2 fold change": 0.359}
{"sequence": "RRIRRRPPRLPRPRPRPIEWPRP", "shrunken log2 fold change": 0.375}
{"sequence": "RRIRKRPPRLPRPRPRPRPNPRP", "shrunken log2 fold change": 0.42}
{"sequence": "RRIRCRPPRLPRPRPRPELKPRP", "shrunken log2 fold change": 0.0478}
{"sequence": "RRIRMRPPRLPRPRPRPWRHPRP", "shrunken log2 fold change": 0.0256}
{"sequence": "RRIRARPPRLPRPRPRPFIIPRP", "shrunken log2 fold change": -0.264}
{"sequence": "RRIRTRPPRLPRPRPRPSYWPRP", "shrunken log2 fold change": -0.153}
{"sequence": "RRIRVRPPRLPRPRPRPPGKPRP", "shrunken log2 fold change": 0.0564}
{"sequence": "RRIRLRPPRLPRPRPRPMNPPRP", "shrunken log2 fold change": -0.0817}
{"sequence": "RRIRERPPRLPRPRPRPTPYPRP", "shrunken log2 fold change": -0.389}
{"sequence": "RRIRRRPPRLPRPRPRPNTKPRP", "shrunken log2 fold change": 0.191}
{"sequence": "RRIRWRPPRLPRPRPRPSDPPRP", "shrunken log2 fold change": 0.00652}
{"sequence": "RRIRARPPRLPRPRPRPNGGPRP", "shrunken log2 fold change": -0.01}
{"sequence": "RRIRPRPPRLPRPRPRPYWFPRP", "shrunken log2 fold change": -0.579}
{"sequence": "RRIRARPPRLPRPRPRPDVMPRP", "shrunken log2 fold change": 0.0669}
{"sequence": "RRIRARPPRLPRPRPRPPECPRP", "shrunken log2 fold change": 0.327}
{"sequence": "RRIRSRPPRLPRPRPRPEVSPRP", "shrunken log2 fold change": 0.214}
{"sequence": "RRIRTRPPRLPRPRPRPTITPRP", "shrunken log2 fold change": 0.184}
{"sequence": "RRIRDRPPRLPRPRPRPVVLPRP", "shrunken log2 fold change": 0.268}
{"sequence": "RRIRIRPPRLPRPRPRPQFWPRP", "shrunken log2 fold change": 0.133}
{"sequence": "RRIRWRPPRLPRPRPRPHWFPRP", "shrunken log2 fold change": 0.0392}
{"sequence": "RRIRGRPPRLPRPRPRPLTSPRP", "shrunken log2 fold change": 0.167}
{"sequence": "RRIRYRPPRLPRPRPRPVKAPRP", "shrunken log2 fold change": -0.0854}
{"sequence": "RRIRIRPPRLPRPRPRPAAWPRP", "shrunken log2 fold change": 0.112}
{"sequence": "RRIRYRPPRLPRPRPRPTMCPRP", "shrunken log2 fold change": -0.159}
{"sequence": "RRIRQRPPRLPRPRPRPIMYPRP", "shrunken log2 fold change": -0.0857}
{"sequence": "RRIRERPPRLPRPRPRPEHAPRP", "shrunken log2 fold change": -0.0115}
{"sequence": "RRIRCRPPRLPRPRPRPHYNPRP", "shrunken log2 fold change": -1.32}
{"sequence": "RRIRARPPRLPRPRPRPWHYPRP", "shrunken log2 fold change": -0.253}
{"sequence": "RRIRTRPPRLPRPRPRPFHNPRP", "shrunken log2 fold change": -0.31}
{"sequence": "RRIRSRPPRLPRPRPRPMIHPRP", "shrunken log2 fold change": -0.0892}
{"sequence": "RRIRQRPPRLPRPRPRPAYFPRP", "shrunken log2 fold change": 0.191}
{"sequence": "RRIRRRPPRLPRPRPRPWGDPRP", "shrunken log2 fold change": -0.0841}
{"sequence": "RRIRHRPPRLPRPRPRPSFRPRP", "shrunken log2 fold change": -0.15}
{"sequence": "RRIRHRPPRLPRPRPRPKAKPRP", "shrunken log2 fold change": 0.00599}
{"sequence": "RRIRTRPPRLPRPRPRPWQHPRP", "shrunken log2 fold change": -0.0511}
{"sequence": "RRIRKRPPRLPRPRPRPDEEPRP", "shrunken log2 fold change": 2.82}
{"sequence": "RRIRNRPPRLPRPRPRPPYVPRP", "shrunken log2 fold change": -0.0374}
{"sequence": "RRIRYRPPRLPRPRPRPQWGPRP", "shrunken log2 fold change": 0.122}
{"sequence": "RRIRWRPPRLPRPRPRPQAYPRP", "shrunken log2 fold change": 0.0869}
{"sequence": "RRIRLRPPRLPRPRPRPTIDPRP", "shrunken log2 fold change": -0.521}
{"sequence": "RRIRLRPPRLPRPRPRPGDCPRP", "shrunken log2 fold change": 0.0644}
